From the Immune Epitope Database (IEDB) come the findings set out here.

Some targets named below: HLA-B*39:01; HLA-A*24:03; HLA-A*29:02; HLA-A*68:02; HLA-A*02:03; HLA-B*07:02; HLA-A*01:01; HLA-B*46:01; HLA-A*11:01; HLA-B*53:01; HLA-A*30:01; HLA-A*23:01; HLA-B*27:03; HLA-A*02:16; HLA-B*51:01; HLA-B*15:17; HLA-A*30:02; HLA-B*18:01; HLA-B*08:01; HLA-A*02:19; HLA-A*03:01; HLA-A*66:01; HLA-B*58:01; HLA-A*02:01.
Holding throughout (assay): IEDB peptide-MHC binding, purified MHC/competitive/fluorescence; filed as Kd, often an IC50 or EC50 that approximates it; ≥ and ≤ were set here for values at or beyond the usual limits of such assays
Common to all, as to conditions: source organism: Entamoeba histolytica HM-1:IMSS

For orientation: Kd means the constant that tells how readily two partners part at equilibrium.

Consider EVIRATYPS, for which the Kd is no less than 20 µM with HLA-B*39:01; no less than 20 µM with HLA-A*24:03; no less than 20 µM with HLA-A*29:02; 0.0002 µM in the experiment with HLA-A*68:02; no less than 20 µM with HLA-A*02:03; no less than 5 µM with HLA-B*07:02. In addition, the Kd in the experiment with HLA-A*01:01 is no less than 5 µM; in the experiment with HLA-B*46:01 it was no less than 20 µM; with HLA-A*11:01, no less than 5 µM; with HLA-B*53:01, no less than 5 µM; with HLA-A*30:01, no less than 5 µM; with HLA-A*23:01 it was no less than 20 µM. Also, the Kd is no less than 20 µM in the experiment with HLA-B*27:03; no less than 20 µM in the experiment with HLA-A*02:16; no less than 20 µM with HLA-B*51:01; no less than 20 µM with HLA-B*15:17; no less than 5 µM in the experiment with HLA-A*30:02; no less than 20 µM with HLA-B*18:01. The Kd in the experiment with HLA-B*08:01 is no less than 5 µM; with HLA-A*02:19, no less than 20 µM; with HLA-A*03:01 it was no less than 20 µM; with HLA-A*66:01 it was 0.0244 µM; in the experiment with HLA-B*58:01, no less than 5 µM; with HLA-A*02:01 it was no less than 20 µM.
